Measured values reported in the DeepSol protein solubility set.

Assay: soluble on expression in E. coli; label from the status in PepcDB or PDB records

Sequence	soluble on expression in E. coli
MSQHNEKNPHQHQSPLHDSSEAKPGMDSLAPEDGSHRPAAEPTPPGAQPTAPGSLKAPDTRNEKLNSLEDVRKGSENYALTTNQGVRIADDQNSLRAGSRGPTLLEDFILREKITHFDHERIPERIVHARGSAAHGYFQPYKSLSDITKADFLSDPNKITPVFVRFSTVQGGAGSADTVRDIRGFATKFYTEEGIFDLVGHNTPIFFIQDAHKFPDFVHAVKPEPHWAIPQGQSAHDTFWDYVSLQPETLHNVMWAMSDRGIPRSYRTMEGFGIHTFRLINAEGKATFVRFHWKPLAGKASLVWDEAQKLTGRDPDFHRRELWEAIEAGDFPEYELGFQLIPEEDEFKFDFDLLDPTKLIPEELVPVQRVGKMVLNRNPDNFFAENEQAAFHPGHIVPGLDFTNDPLLQGRLFSYTDTQISRLGGPNFHEIPINRPTCPYHNFQRDGMHRMGIDTNPANYEPNSINDNWPRETPPGPKRGGFESYQERVEGNKVRERSPSFGEYYSHPRLFWLSQTPFEQRHIVDGFSFELSKVVRPYIRERVVDQLAHIDLTLAQAVAKNLGIELTDDQLNITPPPDVNGLKKDPSLSLYAIPDGDVKGRVVAILLNDEVRSADLLAILKALKAKGVHAKLLYSRMGEVTADDGTVLPIAATFAGAPSLTVDAVIVPCGNIADIADNGDANYYLMEAYKHLKPIALAGDARKFKATIKIADQGEEGIVEADSADGSFMDELLTLMAAHRVWSRIPKIDKIPA	soluble
MGSDKIHHHHHHMLDLKQIGASESRQLKQAHDRGQLSHAYLLLSSDEVEALNTAYWLICYVNCTGEKKPDGTCPACRRILAGNHPDVFLIDTEENKQSIAIDQIRPLKQELAKSPLEGDRRYFVINHAQKLTLPAANALLNLLEEPAAPVVTFLIANNGGQILPTIKSRTQIINFSQQAASSKDRLLLANGMSQEEVDQVKSSQEVDQAVKFFYQELREHDSLAIVSAHQLAGLVKKQKQGTKAWEKYVWILLKKWGEKDLEKGDCQEAANFLADLMRVDQMRQSNVGFLNNLDYLALKWQQ	not soluble
MSLDPQYDGVWRQSLALLAQDTAGVIPSSTAVKWLTDQQCANGAFAPFRADPAKACDAKTPVDTNNTAAAVQALWAVGGHGDVIEEALGWLKSVQNEDGGWGYVPGTPSDANSTSVVIGALTATETDPAKVVKDGKSPYDALLTFALPCAKDKGAGAFAFQPDKDGKLLPNADATAAGVLGTLGEGLVAEAGKKTGAASCADADQPDRERAAANAAAYLTDTLAKDGHLVSALGGSADQPDYGNTADAVVALAAQGGADKAAEPLAWLKKNAAKWAGEGHHHHHH	soluble
MPSAHSVKLRPLEREDLRYVHQLDNNASVMRYWFEEPYEAFVELSDLYDKHIHDQSERRFVVECDGEKAGLVELVEINHVHRRAEFQIIISPEYQGKGLATRAAKLAMDYGFTVLNLYKLYLIVDKENEKAIHIYRKLGFSVEGELMHEFFINGQYRNAIRMCIFQHQYLAEHKTPGQTLLKPTAQ	soluble
MSIVPGVVHSLYGDAKARWTINEYADLECPFCKVYTPRLKRWVDSHTDVNLVWRHLPLQMHGEAARHQARLVECAGIQGGAKAFWSAIDAIFAQSAGNGGGLPGGTLDFPDLDQARLEKCAKDMDLVDQLIKTDIDTARSNGITATPTLVIQDNQTGRSVKLEGMADETTLLSAIDWLAKDL	not soluble
GPGSMSSSNAQAELGPGGSTHSIELGRLIFQGAESKVYCCSFYGALALCKHRFVKRYRDPSLDERLRTQRTRREARALERCVKKGIRAPRLLGADYINTFLVMSYEAGPTVKEALDIEHAAYMQQVSKGKSTSAQQQQPQTTPSPSALGNAAPSPVTAALLQSIGVVVARLHNANIVHGDLTTSNFICTCDGLEAAAPGADGADALASSSPVLPTAEDIVVLDFGLISEKYSTEERAVDLYVLERAIASTHPYLSSFASDIILEGYRSAADPKKGEEALRRLEAVRARGRKRTMIG	not soluble
GPGSMSVKETTIALPLMVESVLDVDSGITATSAISVLDDRAVLIGTSEGSILLCAPVNESAHVLTPYSDTTLHCGAIYDLAVSSDHLVATAGHDAVSCVFPLHTFFRASGVRQCRRITGHTVPVVAVRFLSDGTSLVTLGADGRVLVAEVHSGHVLASLLCGFAATCLACSMDETQLFVGGRSLASIDLHHAMRPMSLQSVAAAASGPDPWASLSSAAAAPGAAASLRTPAWLRLYAWEEKSEATAGASRRQFRAPPHTFIRSLSVDSRDGALTATFARHAGGTSSVEVCGSARWAATGGRTASEATWAPQALQGVSAALRYPMSRDRSTGVATGKLRVRCRVKASARPSAKQTPAPPGSFASTAAALWNGRWYASPFELAGGTPRLTASHGLAETSVFTAEKSDQYGFPSAGPRTPAEELLIAQAQCDELQRECDALVFQIKSFLARKAPIR	not soluble
MGLVTDEVRARAEKYTGDEICREKTKEFLKEVSMPNGLLPLKDIEEVGYDRETGIVWLKQKKSITHKFEAIGKLVSYATEVIAQVEVGKIKKLTGVKAKELLIWVTLNELVLEQPTSSGKINFRTPTGLSRTFPVSAFVVPEVEKPATEKNNGTTEVKEAVAVTDA	not soluble
MTEDLFGDLQDDTILAHLDNPAEDTSRFPALLAELNDLLRGELSRLGVDPAHSLEIVVAICKHLGGGQVYIPRGQALDSLIRDLRIWNDFNGRNVSELTTRYGVTFNTVYKAIRRMRRLKYRQYQPSLL	soluble
MGSDKIHHHHHHMRMTTDKKQGKSRELDLFITDLNGNLRGKRLPASGLKKLRKEGLKLPLSVVGFDFWGADVLDNGLVFETGDSDGVCMPVSQEPIPVPWSEAPRDQMLAMMFNPDGTPFGADPRQVLNRMVDRFSAKGLTPVLATELEFYLMDAESESVQRPIPPALADGKGRRLANAEGYSVEEMDGFEAFFADIREACQGQGIGADTIIAEMGPGQFEVNLNHVADPLNAGDQAILFKRLVRGVSRRHGYAATFMAKPYVEESGNGFHTHFSLLDRDGNNVFDDGTEQGSDLLRHAIAGMMQLMPESMLVFAPHLNSYRRFMPGAHAPTHASWGYENRTVALRVPESPNLARRIEHRVAGADANPYLVLASILAGALHGMENALEPDAPVEGDAYAEESPRYPLPCEWQDAIARFEQSEILREYLGEEFVRVYAQAKRQERRRLNERISDVEYEAYLGLL	not soluble
MGQPIITRDAGRYFLTDRIRHEVDWWNTPQARGEEPPPVQKPVAPGAMVIPLPPPATWGIPPCSLADGIARRESRRRFRAVPLTPEELAFLLWATQGVRARLNEAAVLRTVPSAGCRHPFETYLAILSVTGIEPAVYRYLPLDHALVLEREVPDLAATVTAAAHGQRFAGEAAVTFVWTAIPARTEWRYAEASYKVIALDAGHVCQNLYLACEAIGAGTCAIAAYRQALADELLGVDGREEFTVYLAPVGKV	not soluble
AVNGKGMNPDYKAYLMAPLKKIPEVTNWETFENDLRWAKQNGFYAITVDFWWGDMEKNGDQQFDFSYAQRFAQSVKNAGMKMIPIISTHQCGGNVGDDCNVPIPSWVWNQKSDDSLYFKSETGTVNKETLNPLASDVIRKEYGELYTAFAAAMKPYKDVIAKIFLSGGPAGELRYPSYTTSDGTGYPSRGKFQAYTEFAKSKFRLWVLNKYGSLNEVNKAWGTKLISELAILPPSDGEQFLMNGYLSMYGKDYLEWYQGILENHTKLIGELAHNAFDTTFQVPIGAKIAGVHWQYNNPTIPHGAEKPAGYNDYSHLLDAFKSAKLDVTFTCLEMTDKGSYPEYSMPKTLVQNIATLANEKGIVLNGENALSIGNEEEYKRVAEMAFNYNFAGFTLLRYQDVMYNNSLMGKFKDLLGVTPVMQTIVVKNVPTTIGDTVYITGNRAELGSWDTKQYPIQLYYDSHSNDWRGNVVLPAERNIEFKAFIKSKDGTVKSWQTIQQSWNPVPLKTTSHTSSW	soluble
SSSEGFICPQCMKSLGSADELFKHYEAVHDAGND	soluble
MSLNSYVLGFKEIDKTKISMVGGKGANLGELSRVAGILIPEGFCVTTEAYKKIIEKSKEFNELLDELSCLRLEDGEKVYEVSKKIRMVIERISIPKDIVEEIDVYLTRLGEKDAYAVRSSATAEDLPTASFAGQQDTYLNIIGKKSILEHISKCWASLFTDRAVIYRLQNGFDHRKVYISVVIQKMIFPKAAGILFTADPVNSNRKVLSIDASFGLGEALVSGLVNADMYKVLSGKITDKKVSKKKLAIYASKDGGTKAQELEIEKQNKQVLTEEQILQLEHIGRSIEEHFSFPQDIEWCLNQDTFYILQSRPITTLYPIPKANDEENHVYISVGHQQMMTDPLKPLGMSLYELTSFGNRFKAGGRLFFDVTQMLASKDSRKMLLNNMEQHDPLMKDALVTIIERDFIKALPSDNGNQSKSNKGVSAGESENQIENNPTIVSDLINKNQASIEELKENIKTKSGLELIDFIRTDVEELKKILSDPQSSAVFMTAINASHWINEKMRDWLGEKNAADILSQSVPNNITSKMGLELLEIADVIRPYPEIIDYLQHVKDDNFLEEIVKFNGGHEVKNAILSYLSKYGMRCSGEIDITRTRLSEKPITLVPMILNNIKNFETGAANIKFQQGKQKALEKEQELLERLKQLPDGEQKAKETKRMIKLIRNFIGYREYPKYGMVNRYFIYKQALMKEAEKLANIGAIHEKEDIYYLTFEELREVIRTKKVDYSIINKRKNEHKLYEKLIPPRVITSDGEIVEGEYKRENVPEGAIIGLSVSSGVIEGRARVILNMEDANLEAGDILVTSFTDPSWTPLFVSIKGLVTEVGGLMTHGAVIAREYGLPAVIGVENATKLIKDGQQIRVNGTEGYVEILEGHHHHHH	soluble
MGSDKIHHHHHHQLVLAPADAERYAQNSFPEYLELLTLQNDAAVPADIQRNADWLEKAFQKRGFTTQTLTNGDKPLVYAEFGAAKSDRKTILFYMHFDGQPVNPSEWQTPPWQPVLKEKDAAGKWQTLPESRLLKGDINPEWRIFARASADDKGPIVMFLAAMDAMKEKGVEPAVNIKVLLDSEEEKGSPGLTTVMADHLMLLKSDGMVIYDGAMPSSNRPGINFGNRGSIQIDMTVFGANAAAHSGGYGNVIPNPVQNLATLLASMKDADGKVTIPGYYDRVTLSDSDKKQVAETSPPAGSLEKRFGVAQLDKVAGNAAEAVQYPSLDILGIKAGETGKKASNAIPSTATASVNIRTVPETPPDDMYALLRQYIASKGFHIIAGESPTQAEREQYPHLISLHLTAYPSSAYAARTEIDSPLGHWAVATTTAPRGIAPEKNRMMGGTLPMSGAVSVLKVPYVIVPLVNADNNQHSFDENLRLGNYLEGIRTIVAMATTPLS	not soluble
MGSDKIHHHHHHMAYLDNIAVFVRVVELGNLSAAGRDMRISPAVASNRIKELEKHLGVRLFNRTTRQLMPTEHGTVFYSGAKQVLEAITEAEAAVSALSGQPRGTIRVTAPLGLGRRLVASGIPDFHDKYPDIEVRLRLSDHNVDIMKEGIDVAFRLGIIEDSSLRMRGIMECERVLVAAPKYLEARGEPAEPQELIGKKHDCLMLRYSGAREYVWTLQTPTGPQKFEVHGPYDTDDGDVLTGWALSGRGIINKPRFEVEPFIRDRRLQVILANTPPTPVQFAAVYPHKKLQDPKVRLLLDFMAERCQRLIKDILAGK	not soluble
MGSDKIHHHHHHMKMFKLEEQKLKDLGAIITTNEIKQQPELWLETYEIYKSNKEKLSRFIDTISNNHGQFRVIFTGAGTSAYIGNSILPYLKNKNDIRKYIFEAIPTTDIVSNPYDYLKKDIPTLLISFARSGNSPESLAALNLGNKIVDNFYHLAITCNPEGELAKMTKNDENNYLLLMPSKSNDEGFAMTGSFSCMMLSAMLIFDSLEDDVEKSYINAIIEMGRNVIDRKDEIHELINKDFDRVVYLGSGGLGGLTQEAQLKLLELTAGKISTVYDSPMGFRHGPKSFIDENTLVFEFVSNCLYTRKYDLDVLEEIKRDKIAKFTCAVSVENENNFSGTKFEFKEKYNKLPDVYLAMPYILFAQTIALFVSVKVGNKPDTPSATGTVNRVVKGVTIYEY	not soluble
MYNALYLYCSEYKYEDSIMTISIRLPSDLETRLNNLAAKTGRTKSFYLREIIERGIEEAEDYYLASQVRERVRKGEGTFYSSEEVRKELGLDD	not soluble
